According to doi:10.1101/2023.05.08.539930:

B1: 70 bp (CAG)1 FRET DNA (dsDNA)
DNA 1: CACACGTTCCGAGATATCCTAGCAAGTGATCAGCGTCTATGTAGCTCAAGAGTTCGACTCAGCCTACACCGAG
DNA 2: CTCGGTGTAGGCTGAGTCGAACTCTTGAGCTACATAGACGATCACTTGCTAGGATATCTCGGAACGTGTG
modifications: 5' digoxigenin on both strands, anti-digoxigenin Fab end-blocked
B2: 70 bp (CAG)4 FRET DNA (dsDNA)
DNA 1: CACACGTTCCGAGATATCCTAGCAAGTGATCAGCAGCAGCAGCGTCTATGTAGCTCAAGAGTTCGACTCAGCCTACACCGAG
DNA 2: B1 DNA 2
modifications: 5' digoxigenin on both strands, anti-digoxigenin Fab end-blocked
B3: 70 bp (CAG)2 FRET DNA (dsDNA)
DNA 1: CACACGTTCCGAGATATCCTAGCAAGTGATCAGCAGCGTCTATGTAGCTCAAGAGTTCGACTCAGCCTACACCGAG
DNA 2: B1 DNA 2
modifications: 5' digoxigenin on both strands, anti-digoxigenin Fab end-blocked

What follows are binders tested against MSH2;MSH3 (Homo sapiens;Homo sapiens, UniProt P43246;P20585 1-934;1-1137, |) (assay: FRET).

Binding result, binds:
B1, B2, B3
